2 molecules from patent publication US20240368233A1 (University of Washington, published 2024) can be followed below.

In one assay the target is T1, DFA-1.
T1 construct: Bivalent connector
T1 chain: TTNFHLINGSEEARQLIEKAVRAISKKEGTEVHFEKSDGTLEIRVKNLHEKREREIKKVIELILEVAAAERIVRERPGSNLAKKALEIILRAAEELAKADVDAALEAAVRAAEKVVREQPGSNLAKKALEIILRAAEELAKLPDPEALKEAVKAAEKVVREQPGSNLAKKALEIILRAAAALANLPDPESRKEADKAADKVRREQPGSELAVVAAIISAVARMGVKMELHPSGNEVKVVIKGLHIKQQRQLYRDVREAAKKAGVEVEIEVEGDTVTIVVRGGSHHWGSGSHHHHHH
The experiment in a line: SEC of mixed components; trimer listed in Table 6.

In the next assay the target is T2, DFX.
T2 construct: Bivalent connector
T2 chain: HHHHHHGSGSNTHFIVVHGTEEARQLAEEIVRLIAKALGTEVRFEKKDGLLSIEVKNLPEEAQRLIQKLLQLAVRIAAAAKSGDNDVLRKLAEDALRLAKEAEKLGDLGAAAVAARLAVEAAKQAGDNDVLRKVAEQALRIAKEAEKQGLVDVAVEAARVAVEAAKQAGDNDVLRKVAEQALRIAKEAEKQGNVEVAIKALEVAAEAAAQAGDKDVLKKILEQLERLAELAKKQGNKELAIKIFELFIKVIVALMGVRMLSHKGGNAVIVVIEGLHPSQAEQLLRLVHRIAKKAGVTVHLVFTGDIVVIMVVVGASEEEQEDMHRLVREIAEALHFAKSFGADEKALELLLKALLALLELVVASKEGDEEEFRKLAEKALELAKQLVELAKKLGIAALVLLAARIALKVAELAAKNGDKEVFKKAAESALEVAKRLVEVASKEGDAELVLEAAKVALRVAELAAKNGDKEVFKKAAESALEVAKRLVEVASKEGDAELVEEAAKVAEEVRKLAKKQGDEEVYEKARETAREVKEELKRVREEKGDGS
The assay can be described thus: negative-stain EM of the heterotrimer; components named in the legend. The method, then: SEC peak fractions were concentrated prior to negative stain EM screening. Samples were then immediately diluted 5 to 150 times in TBS buffer (25 mM Tris pH 8.0, 25 mM NaCl) depending on sample concentration. A final volume of 5 μL was applied to negatively glow discharged, carbon-coated 400-mesh copper grids (01844-F, TedPella, Inc.), then washed with Milli-Q™ Water and stained using 0.75% uranyl formate as previously described (53). Air-dried grids were imaged on a FEI Talos L120C TEM (FEI Thermo Scientific, Hillsboro, OR) equipped with a 4K×4K Gatan OneView™ camera at a magnification of 57,000× and pixel size of 2.51. Micrographs were imported into CisTEM software or cryoSPARC™ software and a circular blob picker was used to select particles which were then subjected to 2D classification. Ab initio reconstruction and homogeneous refinement in Cn symmetry were used to generate 3D electron density maps (54, 55).

In a further assay the target is T3, DF202.
T3 construct: Bivalent connector
T3 chain: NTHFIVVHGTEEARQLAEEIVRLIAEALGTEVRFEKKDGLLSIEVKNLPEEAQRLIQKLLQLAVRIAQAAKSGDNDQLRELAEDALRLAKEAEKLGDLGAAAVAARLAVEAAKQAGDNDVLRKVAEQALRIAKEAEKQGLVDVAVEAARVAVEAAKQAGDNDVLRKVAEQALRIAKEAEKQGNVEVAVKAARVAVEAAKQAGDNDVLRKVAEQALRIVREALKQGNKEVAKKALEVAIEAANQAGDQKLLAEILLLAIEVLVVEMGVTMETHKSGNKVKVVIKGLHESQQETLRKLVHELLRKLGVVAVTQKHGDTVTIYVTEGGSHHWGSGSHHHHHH
The experiment in a line: SEC of mixed components; trimer listed in Table 6.

The target of the next assay is T4, DF206.
T4 construct: Bivalent connector
T4 chain: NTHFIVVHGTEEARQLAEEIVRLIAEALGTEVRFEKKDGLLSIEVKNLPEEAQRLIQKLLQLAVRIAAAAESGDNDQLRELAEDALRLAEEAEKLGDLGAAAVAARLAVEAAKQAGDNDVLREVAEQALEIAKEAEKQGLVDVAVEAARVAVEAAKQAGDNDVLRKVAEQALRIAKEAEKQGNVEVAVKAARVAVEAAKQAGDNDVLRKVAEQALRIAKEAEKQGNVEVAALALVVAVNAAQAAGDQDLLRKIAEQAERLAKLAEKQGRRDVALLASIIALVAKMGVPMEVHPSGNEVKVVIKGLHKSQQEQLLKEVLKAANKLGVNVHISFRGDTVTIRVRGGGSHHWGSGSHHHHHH
The experiment in a line: SEC of mixed components; trimer listed in Table 6.

B1: 101B62 (designed binder)
chain: HHHHHHGSGLNDIFEAQKIEWHEAENLYFQSGSNDEKRKRAEKALQRAQEAEKKGDVEEAVRAAQEAVRAAKESGDNDVLRKVAEQALRIAKEAEKQGNVEVAVKAARVAVEAAKQAGDNDVLRKVAEQALRIAKEALKQGNVDVAAKAAQVAEEAAKQAGDQDVLRKVKEVQIEIVLAAIELTVRKMGVTMETHRSGREVKVVIKGLHESQQEQLLEDVLRIAELAGVRVRIRFKGDTVTIVVRG
notes: also called LHD101B62
As to B1, the binding result in the assay with DFA-1 is recorded as “binds”.

B2: 274A53 (designed binder)
chain: TTNFHLINGSEEARQLIEKAVRAISKKEGTEVHFEKSDGTLEIRVKNLHEKREREIKKVIELILEVAAAERIVRERPGSNLAKKALEIILRAAEELAKADVDAALEAAVRAAEKVVREQPGSNLAKKALEIILRAAEELAKLPDPEALKEAVKAAEKVVREQPGSELAKKALEIIERAAEELKKSPDPEAQKEAKKAEQKVREESGSHHWGSGLNDIFEAQKIEWHEGSHHHHHH
notes: also called LHD274A DHR53 stop; LHD274A53
With B2, the binding result with DFX, with DF202 and in the assay with DF206 was “binds” each time.
